Measured values: US20160130347A1 (Hoffmann-La Roche, published 2016)

Experiments:
[1] = target: human MCSP on tumor cells (human, UniProt Q6UVK1 30-2322); assay: cell-based or functional assay
human CD3 on T cells = human CD3 on T cells (human, UniProt P07766 23-126); assay: cell-based or functional assay
Chain of human CD3 on T cells (P07766 23-126 limits assumed): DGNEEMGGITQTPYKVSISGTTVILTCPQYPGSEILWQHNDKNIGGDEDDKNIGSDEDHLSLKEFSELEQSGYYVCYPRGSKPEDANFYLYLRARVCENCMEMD

Chain of human MCSP on tumor cells (Q6UVK1 30-2322): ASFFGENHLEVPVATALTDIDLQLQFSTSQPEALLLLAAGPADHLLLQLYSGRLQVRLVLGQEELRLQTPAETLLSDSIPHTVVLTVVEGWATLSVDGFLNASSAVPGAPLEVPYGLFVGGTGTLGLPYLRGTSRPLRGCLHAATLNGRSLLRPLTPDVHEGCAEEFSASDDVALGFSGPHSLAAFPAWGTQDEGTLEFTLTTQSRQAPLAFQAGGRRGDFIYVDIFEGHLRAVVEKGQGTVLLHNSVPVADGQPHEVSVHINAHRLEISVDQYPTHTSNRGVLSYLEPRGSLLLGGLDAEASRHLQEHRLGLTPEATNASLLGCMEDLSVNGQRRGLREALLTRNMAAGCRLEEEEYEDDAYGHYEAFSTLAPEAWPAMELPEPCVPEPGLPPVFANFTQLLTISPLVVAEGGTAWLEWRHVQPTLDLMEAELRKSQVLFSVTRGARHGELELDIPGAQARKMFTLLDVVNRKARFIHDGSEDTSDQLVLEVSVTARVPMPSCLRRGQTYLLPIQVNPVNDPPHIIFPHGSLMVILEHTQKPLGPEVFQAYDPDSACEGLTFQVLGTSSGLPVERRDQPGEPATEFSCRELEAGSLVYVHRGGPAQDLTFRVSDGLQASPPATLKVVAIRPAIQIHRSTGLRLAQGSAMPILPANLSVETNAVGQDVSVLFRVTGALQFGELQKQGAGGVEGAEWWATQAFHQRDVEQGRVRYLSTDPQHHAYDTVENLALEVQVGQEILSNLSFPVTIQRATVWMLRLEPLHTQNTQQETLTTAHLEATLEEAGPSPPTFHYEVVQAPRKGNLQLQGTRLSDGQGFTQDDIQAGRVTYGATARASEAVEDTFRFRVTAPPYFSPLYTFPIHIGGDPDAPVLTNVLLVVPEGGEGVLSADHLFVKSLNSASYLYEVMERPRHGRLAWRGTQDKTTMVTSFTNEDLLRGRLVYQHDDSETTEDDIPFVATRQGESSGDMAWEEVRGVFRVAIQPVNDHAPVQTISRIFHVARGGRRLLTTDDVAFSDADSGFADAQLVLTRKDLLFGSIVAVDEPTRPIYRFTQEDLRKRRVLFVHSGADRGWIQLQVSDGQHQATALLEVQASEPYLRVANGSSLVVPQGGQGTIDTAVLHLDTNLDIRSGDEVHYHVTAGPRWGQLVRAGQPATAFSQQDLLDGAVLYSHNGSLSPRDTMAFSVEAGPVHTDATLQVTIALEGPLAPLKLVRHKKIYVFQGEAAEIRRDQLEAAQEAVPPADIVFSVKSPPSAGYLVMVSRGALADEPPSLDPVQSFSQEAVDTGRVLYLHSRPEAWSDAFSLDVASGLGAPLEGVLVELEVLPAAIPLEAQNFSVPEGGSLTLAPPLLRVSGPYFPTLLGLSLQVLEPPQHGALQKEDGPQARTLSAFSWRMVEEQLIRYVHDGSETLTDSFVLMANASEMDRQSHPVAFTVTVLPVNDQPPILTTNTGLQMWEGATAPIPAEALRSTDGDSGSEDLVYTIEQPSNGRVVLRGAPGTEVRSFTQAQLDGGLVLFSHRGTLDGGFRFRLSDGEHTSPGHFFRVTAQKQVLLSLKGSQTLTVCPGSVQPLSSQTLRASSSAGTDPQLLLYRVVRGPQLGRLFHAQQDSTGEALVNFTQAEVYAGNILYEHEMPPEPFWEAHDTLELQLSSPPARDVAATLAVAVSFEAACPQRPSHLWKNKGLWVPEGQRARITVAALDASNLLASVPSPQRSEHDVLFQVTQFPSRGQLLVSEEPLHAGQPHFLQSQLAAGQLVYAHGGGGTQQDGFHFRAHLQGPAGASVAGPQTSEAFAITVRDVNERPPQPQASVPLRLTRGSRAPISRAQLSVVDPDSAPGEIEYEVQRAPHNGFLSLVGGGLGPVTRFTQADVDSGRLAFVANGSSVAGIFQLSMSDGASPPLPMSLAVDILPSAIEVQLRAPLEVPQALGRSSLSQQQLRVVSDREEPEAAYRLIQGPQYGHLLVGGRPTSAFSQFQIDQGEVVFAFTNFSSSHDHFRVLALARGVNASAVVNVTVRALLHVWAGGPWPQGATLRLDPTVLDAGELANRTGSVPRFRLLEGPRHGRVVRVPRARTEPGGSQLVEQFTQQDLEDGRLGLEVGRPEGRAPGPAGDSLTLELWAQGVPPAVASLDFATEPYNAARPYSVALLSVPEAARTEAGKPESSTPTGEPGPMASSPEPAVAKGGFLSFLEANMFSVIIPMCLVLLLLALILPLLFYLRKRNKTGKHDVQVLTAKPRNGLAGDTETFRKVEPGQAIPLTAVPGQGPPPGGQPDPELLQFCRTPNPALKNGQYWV

B1: (scFv)2 (antiMCSP/anti huCD3e) (bispecific antibody)
scFv: DIVLTQSPSSLSASLGDRVTISCSASQGIRNYLNWYQQRPDGTVKLLIYYTSSLHSGVPSRFSGSGSGTDYSLTISNLEPEDIATYYCQQYSKLPWTFGGGTKLEIKGGGGSGGGGSGGGGSEVQLQESGPGLVKPSQSLSLTCSVTGYSITSGYYWNWIRQFPGNKLEWMGYITYDGSNNYNPSLKNRISITRDTSKNQFFLKLNSVTTEDTATYYCADFDYWGQGTTLTVSSGGGGSEVQLVESGGGLVQPGGSLRLSCAASGYSFTGYTMNWVRQAPGKGLEWVALINPYKGVSTYNQKFKDRFTISVDKSKNTAYLQMNSLRAEDTAVYYCARSGYYGDSDWYFDVWGQGTLVTVSSVEGGSGGSGGSGGSGGVDDIQMTQSPSSLSASVGDRVTITCRASQDIRNYLNWYQQKPGKAPKLLIYYTSRLESGVPSRFSGSGSGTDYTLTISSLQPEDFATYYCQQGNTLPWTFGQGTKVEIKHHHHHH
- EC50 of killing (LDH release) of MV-3 cells, human PBMCs, E:T 10:1, ~24 h [1]: 0.0571 nM
- EC50 of killing (LDH release) of MV-3 cells, human PBMCs, E:T 10:1, ~24 h (human CD3 on T cells): 0.0571 nM
